Results from US20250101096A1 (SERA PROGNOSTICS, published 2025).
Positions count from the first letter of the chain named. Blank lines part the entries; values can stand above or below the binder they belong to.

Key:
[1] = target: T1, human insulin-like growth factor binding protein 4 (IBP4) (human, UniProt P22692 22-258); experiment: AC-MS, mAb on M-PVA beads, QC2 serum, round 2 (beads reused)
T1 construct: also called IBP4 protein; IGFBP4
T1 sequence: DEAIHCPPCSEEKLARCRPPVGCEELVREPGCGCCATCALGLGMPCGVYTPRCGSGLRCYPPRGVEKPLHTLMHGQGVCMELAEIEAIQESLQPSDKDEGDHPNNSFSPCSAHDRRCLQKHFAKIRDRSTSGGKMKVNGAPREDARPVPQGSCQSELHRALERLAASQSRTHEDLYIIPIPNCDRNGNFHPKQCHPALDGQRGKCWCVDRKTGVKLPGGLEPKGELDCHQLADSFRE

[2] = target: T1, human insulin-like growth factor …; experiment: AC-MS, mAb on M-PVA beads, pooled pregnant serum, peptide …
From the text: (§1) Anti-IBP4 antibody evaluation and selection. A total of 8 hybridoma clones (1H9.B6, 5C11.A7, 7G11.H4, 3D4.E9, 1G3.A3, 8G4.G11, 5F10.B2, and 3D8.A11) were produced according to the “additional production of anti-IBP4 antibodies” methods disclosed in Example 1 and screened by AC-MS, shown in Table 10 below. Monoclonal antibodies from these clones purified by protein-G affinity chromatography were covalently coupled to M-PVA magnetic beads and used in AC-MS experiments using pooled pregnant serum. The 5B3.G9 anti-IBP4 antibody clone was included in this analysis for comparison to the performance of the additional IBP4 antibodies, as shown and italicized in Table 10 below. Table 10 includes a summary of the additional antibodies Response Ratios and shared epitope binding results as determined by the competitive binding assays of Example 3.

[3] = target: T1, human insulin-like growth factor …; experiment: AC-MS, 10 ul QC2 serum, M-PVA beads coupled at 100 ug/ml mAb
From the text: (§2) AC-MS performance at reduced IBP4 antibody coupling density. IBP4 antibodies were coupled to M-PVA beads at concentrations of […] in the coupling reaction to test the performance of M-PVA beads with reduced density of coupled antibody. Comparison of the IBP4 response ratios obtained in AC-MS experiments with M-PVA beads with a low density of coupled mAb should reveal differences in the apparent affinity of the antibodies to IBP4 protein.
(§3) M-PVA beads coupled to IBP4 mAbs 1H9.B6, 5C11.A7, 7G11.H4 or 5B3.G9 at each concentration were used in AC-MS experiments with 10 μl of QC2 serum.

[4] = target: T1, human insulin-like growth factor …; experiment: AC-MS, mAb on M-PVA beads, QC2 serum, round 1
[5] = target: T1, human insulin-like growth factor …; experiment: AC-MS, 10 ul QC2 serum, M-PVA beads at reduced mAb coupling density
From the text: as §2, §3

[6] = target: T1, human insulin-like growth factor …; experiment: AC-MS, mAb on M-PVA beads, QC2 serum, round 3 (beads reused)
[7] = target: T1, human insulin-like growth factor …; experiment: AC-MS, mAb on M-PVA beads, pooled pregnant serum
From the text: as §1

[8] = target: T1, human insulin-like growth factor …; experiment: AC-MS, 10 ul QC2 serum, M-PVA beads coupled at 400 ug/ml mAb
From the text: as §2, §3

[9] = target: T1, human insulin-like growth factor …; experiment: SPR, format and IBP4 form not stated
[10] = target: T1, human insulin-like growth factor …; experiment: AC-MS, 10 ul QC2 serum, M-PVA beads coupled at 25 ug/ml mAb
From the text: as §2, §3

[11] = target: T2, anti-SHBG antibody clone variant 4G10.F8; experiment: ECLIA, single peptide competes with SHBG for the antibody
T2 construct: Mouse monoclonal; variant form expressed from a standard backbone in CHO cells; also called SHBG (4G10.F8) Anti SHBG v1; SHBG #6

C4 Pos Control #4 = experiment: as above
[12] = target: T3, anti-SHBG antibody clone variant 13C9.E5; experiment: as above
T3 construct: Mouse monoclonal; variant form; also called SHBG (13C9.E5) Anti SHBG v2; SHBG #16
T3 sequence (VH, as listed by the source): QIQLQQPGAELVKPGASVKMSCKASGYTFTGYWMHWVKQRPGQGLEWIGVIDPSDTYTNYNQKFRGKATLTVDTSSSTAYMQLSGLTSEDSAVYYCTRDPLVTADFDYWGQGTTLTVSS

T2 sequence (heavy, as listed by the source, chain 1 of 2): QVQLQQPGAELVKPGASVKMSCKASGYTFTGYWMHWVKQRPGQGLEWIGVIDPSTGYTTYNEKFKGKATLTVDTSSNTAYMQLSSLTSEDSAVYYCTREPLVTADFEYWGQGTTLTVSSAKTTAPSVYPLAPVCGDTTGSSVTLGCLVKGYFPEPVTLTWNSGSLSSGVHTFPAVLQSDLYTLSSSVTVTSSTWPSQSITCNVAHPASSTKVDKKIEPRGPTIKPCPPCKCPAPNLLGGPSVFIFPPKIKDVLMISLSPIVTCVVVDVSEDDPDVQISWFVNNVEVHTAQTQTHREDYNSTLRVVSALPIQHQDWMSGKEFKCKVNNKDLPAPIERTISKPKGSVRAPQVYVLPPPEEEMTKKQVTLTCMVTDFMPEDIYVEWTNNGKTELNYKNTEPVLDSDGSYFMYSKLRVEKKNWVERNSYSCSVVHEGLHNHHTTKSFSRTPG
T2 sequence (light, as listed by the source, chain 2 of 2): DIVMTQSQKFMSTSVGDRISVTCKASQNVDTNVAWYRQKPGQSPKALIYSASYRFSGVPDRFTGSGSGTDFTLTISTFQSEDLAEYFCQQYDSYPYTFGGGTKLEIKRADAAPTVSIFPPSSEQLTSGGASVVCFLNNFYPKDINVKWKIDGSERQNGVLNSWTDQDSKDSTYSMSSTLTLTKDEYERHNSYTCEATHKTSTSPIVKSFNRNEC

- ave RR [1]: 0.607
- Response Ratio [2]: 0.588
- ave RR [3]: 0.562
- ave RR [4]: 0.602
- percentage of the IBP4 RR at 25 relative to 400 coupling density [5]: 82%
- ave RR [6]: 0.62
- ave IBP4 AC-MS RR [7]: 0.588
- ave RR [8]: 0.586
- Kd [9]: 1.5 nM
- koff [9]: 0.0009 s⁻¹
- kon [9]: 600000 M⁻¹ s⁻¹
- t1/2 [9]: 770 s
- ave RR [10]: 0.479
B1: anti-IBP4 antibody 1H9.B6 (antibody, mouse IgG1, kappa, V domains shown)
VH: EVQLQQSGPELVKPGASVKISCKTSGYTFTDYYMNWVKQSHGKSLEWIGDINPNNGGAGYNQKFKGKATLTVDKSSSTAYMELRSLTSEDSAVYYCARWGWDRYFDYWGQGTTLTVSS
VL: DIVMTQSQKFMSTSVGDRVSVTCKASQNVGIDVAWYQQKPGQSPKALIYSASYRSSGVPDRFTGSGSGTDFTLTINNVQSEDLAEYFCQQYNSYPLAFGSGTKLEIKR
notes: Mouse hybridoma mAb raised against FL IBP4; also called IBP4-1H9.B6

- ave RR [1]: 0.609
- Response Ratio [2]: 0.548
- ave RR [3]: 0.567
- ave RR [4]: 0.651
- percentage of the IBP4 RR at 25 relative to 400 coupling density [5]: 79%
- ave RR [6]: 0.619
- ave IBP4 AC-MS RR [7]: 0.548
- ave RR [8]: 0.595
- Kd [9]: 1.6 nM
- koff [9]: 0.00074 s⁻¹
- kon [9]: 450000 M⁻¹ s⁻¹
- t1/2 [9]: 936 s
- ave RR [10]: 0.47
B2: anti-IBP4 antibody 5C11.A7 (antibody, mouse IgG1, kappa, V domains shown)
VH: QVQLQQSGAELVRPGASVTLSCKASGYTFTDYEMHWVRQTPVHGLEWIGAIDTETGGPAYNQKFKGKAILTADKSSSTAYMELRSLTSEDSAVYFCTRARGSRSVYYFDNWGQGTTLTVSS
VL: B1 VL with I31T, D32N, Q42H, A46V, S55H, N76G, E85D, N92D, S93T, A97T
notes: Mouse hybridoma mAb raised against FL IBP4; also called IBP4-5C11.A7

- ave RR [1]: 0.56
- Response Ratio [2]: 0.525
- ave RR [3]: 0.492
- ave RR [4]: 0.598
- percentage of the IBP4 RR at 25 relative to 400 coupling density [5]: 75%
- ave RR [6]: 0.547
- ave IBP4 AC-MS RR [7]: 0.525
- ave RR [8]: 0.538
- Kd [9]: 2.8 nM
- koff [9]: 0.00102 s⁻¹
- kon [9]: 370000 M⁻¹ s⁻¹
- t1/2 [9]: 679 s
- ave RR [10]: 0.404
B3: anti-IBP4 antibody 7G11.H4 (antibody, mouse IgG1, kappa, V domains shown)
VH: B2 VH
VL: DIVMTQSQKFMSTSVGDRVSVTCKASQNVDTNIAWYQQKPGHSPKALIYSASYRYSGVPDRFTGSGSGTDFTLTIGNVQSEDLADYFCQQYDTYPLTFGSGTKLEIKR
notes: Mouse hybridoma mAb raised against FL IBP4; also called IBP4-7G11.H4

- ave RR [1]: 0.534
- Response Ratio [2]: 0.482
- ave RR [3]: 0.449
- ave RR [4]: 0.533
- percentage of the IBP4 RR at 25 relative to 400 coupling density [5]: 49%
- ave RR [6]: 0.462
- ave IBP4 AC-MS RR [7]: 0.482
- ave RR [8]: 0.47
- Kd [9]: 10 nM
- koff [9]: 0.0021 s⁻¹
- kon [9]: 200000 M⁻¹ s⁻¹
- t1/2 [9]: 330 s
- ave RR [10]: 0.231
B4: anti-IBP4 antibody 5B3.G9 (antibody, mouse IgG1, kappa)
heavy: EVQLQQSGPELVKPGASAKISCKASGYTFTDYYMNWVKQSHGKSLEWIGDINPNNGGSAYNQKFKGKATLTVDKSSSTAYMELRSLTSEDSAVYYCARWDGGFDYWGQGTTLTVSSAKTTPPSVYPLAPGSAAQTNSMVTLGCLVKGYFPEPVTVTWNSGSLSSGVHTFPAVLQSDLYTLSSSVTVPSSTWPSQTVTCNVAHPASSTKVDKKIVPRDCGCKPCICTVPEVSSVFIFPPKPKDVLTITLTPKVTCVVVDISKDDPEVQFSWFVDDVEVHTAQTKPREEQINSTFRSVSELPIMHQDWLNGKEFKCRVNSAAFPAPIEKTISKTKGRPKAPQVYTIPPPKEQMAKDKVSLTCMITNFFPEDITVEWQWNGQPAENYKNTQPIMDTDGSYFVYSKLNVQKSNWEAGNTFTCSVLHEGLHNHHTEKSLSHSPGK
light: DIVMTQSQKFMSTSVRDRVSVTCKASQNVGTNVAWYQQKPGQSPKALIYSASYRYSGVPDRFTGSGSGTAFTLTISNVQSEDLAEYFCQQYNIYPLTFGAGTKLELKRADAAPTVSIFPPSSEQLTSGGASVVCFLNNFYPRDINVKWKIDGSERQNGVLNSWTDQDSKDSTYSMSSTLTLTKDEYERHNSYTCEATHKTSTSPIVKSFNRNECK

- % Unblocked Signal at 0.07 uMolar [11]: 95.8%
- % Unblocked Signal at 0.27 uMolar [11]: 83%
- % Unblocked Signal at 1.08 uMolar [11]: 53.2%
- % Unblocked Signal at 0.07 uMolar (C4 Pos Control #4): 93.3%
- % Unblocked Signal at 0.27 uMolar (C4 Pos Control #4): 77.1%
- % Unblocked Signal at 1.08 uMolar (C4 Pos Control #4): 66.3%
- % Unblocked Signal at 0.07 uMolar [12]: 93.4%
- % Unblocked Signal at 0.27 uMolar [12]: 89.6%
- % Unblocked Signal at 1.08 uMolar [12]: 86.8%
B5: 1 (peptide)
peptide: LRPVLPTQSAHDPP
notes: SHBG peptide of pool 1+2+3; also called peptide 1; Individual Peptide 1
